In US8771694 (IMMUNOMEDICS, dated 2014):

T1: CD22 (LL2 antigen on the surface of Raji cells) (UniProt P20273 20-847, limits assumed)
T1 construct: whole, on cells; All assays used whole Raji cells; also called Raji cell surface antigen; B-lymphoma cells
T1 sequence (looked up): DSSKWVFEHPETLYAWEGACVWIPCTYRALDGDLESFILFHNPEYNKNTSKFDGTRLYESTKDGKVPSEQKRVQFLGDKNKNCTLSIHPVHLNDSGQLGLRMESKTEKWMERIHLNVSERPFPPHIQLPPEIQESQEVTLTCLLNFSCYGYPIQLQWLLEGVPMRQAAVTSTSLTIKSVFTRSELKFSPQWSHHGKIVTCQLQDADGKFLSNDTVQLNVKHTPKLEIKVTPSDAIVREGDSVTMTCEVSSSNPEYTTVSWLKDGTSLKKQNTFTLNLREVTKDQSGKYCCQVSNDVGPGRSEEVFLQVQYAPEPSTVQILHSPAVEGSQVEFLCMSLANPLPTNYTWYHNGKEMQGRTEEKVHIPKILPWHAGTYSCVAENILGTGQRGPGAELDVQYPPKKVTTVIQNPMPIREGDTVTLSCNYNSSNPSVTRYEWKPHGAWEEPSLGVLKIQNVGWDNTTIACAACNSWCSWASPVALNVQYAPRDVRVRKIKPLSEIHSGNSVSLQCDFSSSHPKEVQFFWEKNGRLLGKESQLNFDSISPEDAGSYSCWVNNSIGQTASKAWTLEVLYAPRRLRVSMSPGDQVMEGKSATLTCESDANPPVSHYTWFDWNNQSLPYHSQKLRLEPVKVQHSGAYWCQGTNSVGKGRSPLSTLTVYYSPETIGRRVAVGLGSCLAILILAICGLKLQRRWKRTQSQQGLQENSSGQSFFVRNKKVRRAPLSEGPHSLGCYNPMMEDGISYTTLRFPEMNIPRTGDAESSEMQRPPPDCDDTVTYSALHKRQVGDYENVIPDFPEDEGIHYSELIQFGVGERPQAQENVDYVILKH


Target: T1, CD22 (LL2 antigen on the surface of …)
Test: competition flow cytometry on Raji cells, competitor mLL2 F(ab')2
Protocol: The Raji cell surface antigen binding affinities of mix-and-match and fully humanized antibodies can be compared to that of cLL2 using various concentrations of mLL2 F(ab')_2 fragments devoid of the Fc portion as competitors, as evaluated by flow cytometry assay. Residual surface-bound LL2 antibodies carrying the human Fc portions (cLL2 and mix-and-match LL2) can be detected by a FITC-labeled anti-human Fc specific antibody in a flow cytometry assay.
Briefly, 1 µg of cLL2, mix-and-match LL2, hLL2-1 or hLL2-2 antibodies were incubated with […] Raji cells in the presence of varying concentrations of mLL2 F(ab')_2 fragments (as competitor) in a final volume of 100 µl of PBS buffer supplemented with 1% FCS and 0.01% sodium azide. The mixture was incubated for 30 minutes at 4° C., and washed three times with PBS to remove unbound antibodies. By taking advantage of the presence of human Fc portions in the antibodies, the binding levels of the antibodies were assessed by adding a 20×diluted FITC-labeled goat anti-human IgG1, Fc fragment-specific antibodies (Jackson ImmunoResearch, West Grove, Pa.). The cells were washed three times with PBS, and fluorescence intensities measured by a FACSCAN fluorescence activated cell sorter (Becton-Dickinson, Bedford, Mass.).

binding result | Binder
binds | humanized LL2 version 1 (antibody, human IgG1, V domains shown, VH has Q at Kabat position 5; also called hLL2-1; hLL2 with seven murine FR residues in the VH domain) VH: QVQLQQSGAEVKKPGSSVKVSCKASGYTFTSYWLHWVRQAPGQGLEWIGYINPRNDYTEYNQNFKDKATITADESTNTAYMELSSLRSEDTAFYFCARRDITTFYWGQGTTVTVSS VL: DIQLTQSPSSLSASVGDRVTMSCKSSQSVLYSANHKNYLAWYQQKPGKAPKLLIYWASTRESGVPSRFSGSGSGTDFTFTISSLQPEDIATYYCHQYLSSWTFGGGTKVQIKR
binds | humanized LL2 version 2 (antibody, human IgG1, V domains shown, VH has V at Kabat position 5; also called hLL2-2; hLL2) VH: QVQLVQSGAEVKKPGSSVKVSCKASGYTFTSYWLHWVRQAPGQGLEWIGYINPRNDYTEYNQNFKDKATITADESTNTAYMELSSLRSEDTAFYFCARRDITTFYWGQGTTVTVSS VL: DIQLTQSPSSLSASVGDRVTMSCKSSQSVLYSANHKNYLAWYQQKPGKAPKLLIYWASTRESGVPSRFSGSGSGTDFTFTISSLQPEDIATYYCHQYLSSWTFGGGTKVQIKR
